This note sets out measurements from patent publication US20110207656A1 (Dana-Farber, published 2011).

The test deals with T1, purified FADD protein (human, UniProt Q13158 1-208, limits assumed).
T1 sequence: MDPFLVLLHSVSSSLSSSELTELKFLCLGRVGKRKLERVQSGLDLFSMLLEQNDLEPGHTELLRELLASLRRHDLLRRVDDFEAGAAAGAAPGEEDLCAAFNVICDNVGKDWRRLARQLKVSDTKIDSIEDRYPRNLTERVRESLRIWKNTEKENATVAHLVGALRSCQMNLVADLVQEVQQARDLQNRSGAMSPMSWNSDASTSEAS
In words: GST pull-down of purified FADD, anti-FADD immunoblot. How it is done: In vitro binding assays. Purified GST, GST-MUC1-CD(1-72), GST-MUC1-CD deletion mutants, GST-caspase-8, GST-caspase-8 deletion mutants, GST-FADD, GST-N-FADD and GST-C-FADD protein (36) were purified from E. coli (BL21 DE3) and immobilized on glutathione-agarose beads (Pierce). His-MUC1-CD(1-72) and His-caspase-8 deletion mutant proteins were purified on Ni-NTA beads (Qiagen, Valencia, Calif.). GST and GST fusion proteins bound to glutathione beads were incubated with purified soluble proteins for 2 hours at 4° C., and washed. Adsorbates bound to the beads were analyzed by solubilizing the protein/bead mixture in Laemli buffer following by sodium dodecyl sulfate polyacrylamide gel electrophoresis (SDS-PAGE) and immunoblotting. For competition studies, GST-caspase-8 DED protein bound to FADD was incubated with increasing amounts of MUC1-CD protein. Precipitated proteins were subjected to SDS-PAGE and immunoblot analysis. In certain studies, binding was performed in the presence of a synthetic peptide ([…]) (SEQ ID NO:3) derived from amino acids 1-20 from MUC1-CD (Molecular Biology Core Facility, Dana-Farber Cancer Institute).

Ends that are not written are not given here.

B1: GST-MUC1-CD(1-45) (other)
chain: {GST}-CQCRRKNYGQLDIFPARDTYHPMSEYPTYHTHGRYVPPSSTDRSP
modifications: cysteine pairing not given here; also: linker to GST not given here
notes: also called GST-MUC1-CD deletion mutant; not shown: GST fusion partner at the N end, and any linker to it
B1: the binding result is “no binding”.
